Here are results for ten molecules from patent US20100136005A1 (Genentech, published 2010).

Experiment [1] deals with T1, rhesus CD11a (rhesus, UniProt H9Z8N3 26-1169).
T1 construct: whole, on cells; also called rhCD11a
T1 sequence: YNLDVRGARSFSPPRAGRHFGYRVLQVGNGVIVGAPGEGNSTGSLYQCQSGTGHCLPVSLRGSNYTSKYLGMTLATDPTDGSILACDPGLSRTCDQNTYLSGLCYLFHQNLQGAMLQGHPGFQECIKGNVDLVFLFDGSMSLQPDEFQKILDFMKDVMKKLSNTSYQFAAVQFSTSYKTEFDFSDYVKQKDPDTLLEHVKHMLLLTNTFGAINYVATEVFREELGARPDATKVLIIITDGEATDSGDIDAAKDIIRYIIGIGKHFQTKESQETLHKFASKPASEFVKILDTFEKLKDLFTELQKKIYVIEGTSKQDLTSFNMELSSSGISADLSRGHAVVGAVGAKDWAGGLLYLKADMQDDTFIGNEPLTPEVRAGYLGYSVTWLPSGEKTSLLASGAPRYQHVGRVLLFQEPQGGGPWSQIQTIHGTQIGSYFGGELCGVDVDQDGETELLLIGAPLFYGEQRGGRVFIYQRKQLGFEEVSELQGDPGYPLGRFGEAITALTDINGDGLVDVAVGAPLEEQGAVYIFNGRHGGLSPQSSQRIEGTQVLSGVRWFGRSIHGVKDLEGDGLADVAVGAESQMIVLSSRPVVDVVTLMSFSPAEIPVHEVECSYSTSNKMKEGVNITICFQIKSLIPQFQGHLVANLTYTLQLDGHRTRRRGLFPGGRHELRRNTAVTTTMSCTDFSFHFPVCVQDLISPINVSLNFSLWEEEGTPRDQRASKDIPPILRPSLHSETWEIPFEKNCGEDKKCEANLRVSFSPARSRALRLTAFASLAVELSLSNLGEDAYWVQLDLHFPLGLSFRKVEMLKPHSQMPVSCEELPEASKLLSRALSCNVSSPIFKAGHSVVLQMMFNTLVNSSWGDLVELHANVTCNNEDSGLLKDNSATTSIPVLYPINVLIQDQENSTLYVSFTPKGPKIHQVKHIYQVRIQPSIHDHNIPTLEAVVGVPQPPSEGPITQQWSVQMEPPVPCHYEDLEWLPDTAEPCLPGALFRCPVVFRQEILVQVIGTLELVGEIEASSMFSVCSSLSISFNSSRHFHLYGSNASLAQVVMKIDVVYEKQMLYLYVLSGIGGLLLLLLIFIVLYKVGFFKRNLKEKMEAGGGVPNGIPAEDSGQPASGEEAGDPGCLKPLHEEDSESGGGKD
As to the kind of experiment: cell binding, rhesus against human CD11a.

Experiment [2] deals with T2, human CD11a (human, UniProt P20701 26-1170). As to the kind of experiment: cell-based or functional assay.
Experiment [3] has as its target T2, human CD11a. As to the kind of experiment: cell-based or functional assay. This is another data set of the same source.
For experiment [4], the target named is T2, human CD11a. As to the kind of experiment: FACScan, Jurkat cells. Here is the method: (§1) Aliquots of 10⁶ Jurkat T-cells were incubated with serial dilutions of humanized and control antibodies in PBS-0.1% BSA-10 mM sodium azide for 45 min at 4° C. The cells were washed and then incubated in fluorescein-conjugated goat anti-human F(ab′)₂ (Organon Teknika, Westchester, Pa.) for 45 min at 4° C. Cells were washed and analysed on a FACScan (Becton Dickinson, Mountain View, Calif.). 8×10³ cells were acquired by list mode and gated by forward light scatter versus side light scatter, thereby excluding dead cells and debris.

Experiment [5] deals with T1, rhesus CD11a. Put plainly: binding to rhesus peripheral blood lymphocytes; end assigned by the printed EC50s.
The target in experiment [6] is T1, rhesus CD11a. Put plainly: rhesus EC50 of the variant against human EC50 of HuIgG1; end assigned by the printed EC50s.
The target in experiment [7] is T2, human CD11a. As to the kind of experiment: FACScan, Jurkat cells; ratio to HuIgG1 EC50 (0.042 nM). Here is the method:
as §1

The target of experiment [8] is T1, rhesus CD11a. Put plainly: binding to rhesus peripheral blood lymphocytes; ratio to HuIgG1 EC50 (45.6 nM).
Experiment [9] concerns the target T1, rhesus CD11a. As to the kind of experiment: binding to rhesus peripheral blood lymphocytes.
Experiment [10] concerns the target T1, rhesus CD11a. As to the kind of experiment: binding to rhesus peripheral blood lymphocytes; ratio to HuIgG1 EC50 (45.6 nM). This is another data set of the same source.

B1: murine MHM24 (antibody, V domains shown)
VH: EVQLQQPGAELMRPGASVKLSCKASGYSFTGHWMNWVRQRPGQGLEWIGMIHPSDSETRLNQKFKDKATLTVDKSSSSAYMQLSSPTSEDSAVYYCARGIYFYGTTYFDYWGQGTTLTVSS
VL: DVQITQSPSYLAASPGETISINCRASKTISKYLAWYQEKPGKTNKLLIYSGSTLQSGIPSRFSGSGSGTDFTLTISSLEPEDFAMYYCQQHNEYPLTFGTGTKLELKR
notes: Murine anti-human CD11a MAb; also called muMHM24; murMHM24
In the case of B1, in the experiment with rhesus CD11a [1], the “fold reduction in binding (rhesus against human CD11a)” value was roughly 1000 fold. The “IC50 Value (nM), human mixed lymphocyte response” value with human CD11a [2] worked out at 0.19 nM. Moreover, in the experiment with human CD11a [3], the “IC50 Value (nM), Jurkat:HuK cell adhesion” value is 0.09 nM.

B2: chimeric MHM24 IgG1 (antibody, V domains shown)
VH: EVQLQQPGAELMRPGASVKLSCKASGYSFTGHWMNWVRQRPGQGLEWIGMIHPSDSETRLNQKFKDKATLTVDKSSSSAYMQLSSPTSEDSAVYYCARGIYFYGTTYFDYWGQGTTLTVSS
VL: DVQITQSPSYLAASPGETISINCRASKTISKYLAWYQEKPGKTNKLLIYSGSTLQSGIPSRFSGSGSGTDFTLTISSLEPEDFAMYYCQQHNEYPLTFGTGTKLELKR
Consider B2, for which the “IC50 Value (nM), Jurkat:HuK cell adhesion” value in the experiment with human CD11a [3] is 0.1 nM.

B3: humanized MHM24 HuIgG1 (antibody, V domains shown)
VH: EVQLVESGGGLVQPGGSLRLSCAASGYSFTGHWMNWVRQAPGKGLEWVGMIHPSDSETRYNQKFKDRFTISVDKSKNTLYLQMNSLRAEDTAVYYCARGIYFYGTTYFDYWGQGTLVTVSS
VL: DIQMTQSPSSLSASVGDRVTITCRASKTISKYLAWYQQKPGKAPKLLIYSGSTLQSGVPSRFSGSGSGTDFTLTISSLQPEDFATYYCQQHNEYPLTFGQGTKVEIKR
notes: F(ab)-8 VL and VH fused to human constant light and IgG1 heavy chains; also called huMHM24
B3: the “fold reduction in binding (rhesus against human CD11a)” value with rhesus CD11a [1] was roughly 1000 fold. Also, in the experiment with human CD11a [2], the “IC50 Value (nM), human mixed lymphocyte response” value is 0.38 nM. Moreover, the “IC50 Value (nM), Jurkat:HuK cell adhesion” value with human CD11a [3] is 0.13 nM.

B4: humanized MHM24 F(ab)-4 (Fab, V domains shown)
VH: EVQLVESGGGLVQPGGSLRLSCAASGFSFTGHWMNWVRQAPGKGLEWVGMIHPSDSETRYNQKFKDRFTISRDNSKNTLYLQMNSLRAEDTAVYYCARGIYFYGTTYFDYWGQGTLVTVSS
VL: DIQMTQSPSSLSASVGDRVTITCRASKTISKYLAWYQQKPGKAPKLLIYSGSSLESGVPSRFSGSGSGTDFTLTISSLQPEDFATYYCQQHNEYPLTFGQGTKVEIK
In the case of B4, in the experiment with human CD11a [4], the “fold reduction in binding (against F(ab)-2)” value worked out at 3 fold.

B5: H2C11 (antibody, V domains shown)
VH: EVQLVESGGGLVQPGGSLRLSCAASGYSFTGHWMNWVRQAPGKGLEWVGMIAPASSNTRYNQKFKDRFTISVDKSKNTLYLQMNSLRAEDTAVYYCARGIYFYGTTYFDYWGQGTLVTVSS
VL: DIQMTQSPSSLSASVGDRVTITCRASKTISKYLAWYQQKPGKAPKLLIYSGSTLQSGVPSRFSGSGSGTDFTLTISSLQPEDFATYYCQQHNEYPLTFGQGTKVEIKR
On to B5, for which the “fold improvement over the EC50 of HuIgG1 for rhesus CD11a” value with rhesus CD11a [5] is 240 to 415 fold. In addition, in the experiment with rhesus CD11a [6], the “fold weaker than the EC50 of HuIgG1 for human CD11a” value lay in the range of 3 to 5 fold.

B6: humanized MHM24 F(ab)-7 (Fab, V domains shown)
VH: EVQLVESGGGLVQPGGSLRLSCAASGYSFTGHWMNWVRQAPGKGLEWVGMIHPSDSETRYNQKFKDRFTISVDKSSSTLYLQMNSLRAEDTAVYYCARGIYFYGTTYFDYWGQGTLVTVSS
VL: DIQMTQSPSSLSASVGDRVTITCRASKTISKYLAWYQQKPGKAPKLLIYSGSTLQSGVPSRFSGSGSGTDFTLTISSLQPEDFATYYCQQHNEYPLTFGQGTKVEIK
notes: F(ab) with human CL and CH1; Worked back from F(ab)-8
For the molecule B6, the “fold improvement in binding (against F(ab)-6)” value with human CD11a [4] was 3 fold.

B7: AspH54Glu (antibody, human IgG1, V domains shown)
VH: EVQLVESGGGLVQPGGSLRLSCAASGYSFTGHWMNWVRQAPGKGLEWVGMIHPSESETRYNQKFKDRFTISVDKSKNTLYLQMNSLRAEDTAVYYCARGIYFYGTTYFDYWGQGTLVTVSS
VL: DIQMTQSPSSLSASVGDRVTITCRASKTISKYLAWYQQKPGKAPKLLIYSGSTLQSGVPSRFSGSGSGTDFTLTISSLQPEDFATYYCQQHNEYPLTFGQGTKVEIK
notes: HuIgG1 variant (human IgG1); also called AspH54 change to Glu
As for B7, the “Variant EC50/HuIgG1 EC50” value with human CD11a [7] is 16 ratio.

B8: SerL52Ala (antibody, human IgG1, V domains shown)
VH: EVQLVESGGGLVQPGGSLRLSCAASGYSFTGHWMNWVRQAPGKGLEWVGMIHPSDSETRYNQKFKDRFTISVDKSKNTLYLQMNSLRAEDTAVYYCARGIYFYGTTYFDYWGQGTLVTVSS
VL: DIQMTQSPSSLSASVGDRVTITCRASKTISKYLAWYQQKPGKAPKLLIYSGATLQSGVPSRFSGSGSGTDFTLTISSLQPEDFATYYCQQHNEYPLTFGQGTKVEIKR
notes: HuIgG1 variant (human IgG1)
As to B8, the “Var.EC50/HuIgG1 EC50” value with rhesus CD11a [8] came to 13.3 ratio.

B9: AspH54Asn (antibody, human IgG1, V domains shown)
VH: EVQLVESGGGLVQPGGSLRLSCAASGYSFTGHWMNWVRQAPGKGLEWVGMIHPSNSETRYNQKFKDRFTISVDKSKNTLYLQMNSLRAEDTAVYYCARGIYFYGTTYFDYWGQGTLVTVSS
VL: DIQMTQSPSSLSASVGDRVTITCRASKTISKYLAWYQQKPGKAPKLLIYSGSTLQSGVPSRFSGSGSGTDFTLTISSLQPEDFATYYCQQHNEYPLTFGQGTKVEIK
notes: HuIgG1 variant (human IgG1); also called AspH54 change to Asn
Turning to B9, the “fold improvement of rhesus binding (against HuIgG1)” value in the experiment with rhesus CD11a [9] stood at 10 fold. The “Variant EC50/HuIgG1 EC50” value in the experiment with human CD11a [7] amounted to 26 ratio; with rhesus CD11a [10], 0.1 ratio.

B10: AspH54Gln (antibody, human IgG1, V domains shown)
VH: EVQLVESGGGLVQPGGSLRLSCAASGYSFTGHWMNWVRQAPGKGLEWVGMIHPSQSETRYNQKFKDRFTISVDKSKNTLYLQMNSLRAEDTAVYYCARGIYFYGTTYFDYWGQGTLVTVSS
VL: DIQMTQSPSSLSASVGDRVTITCRASKTISKYLAWYQQKPGKAPKLLIYSGSTLQSGVPSRFSGSGSGTDFTLTISSLQPEDFATYYCQQHNEYPLTFGQGTKVEIK
notes: HuIgG1 variant (human IgG1); also called AspH54 change to Gln
On to B10, for which the “Variant EC50/HuIgG1 EC50” value was 20 ratio in the experiment with human CD11a [7] and 4.4 ratio in the experiment with rhesus CD11a [10].
